Test results as given in patent publication US20130079280A1.

Molecular target: Murine CD40L on the Th2 cell line D10.G4.1 (murine) (UniProt P27548)
Test: cell-based or functional assay

Sequence of Murine CD40L on the Th2 cell line D10.G4.1 (murine) (P27548 whole entry): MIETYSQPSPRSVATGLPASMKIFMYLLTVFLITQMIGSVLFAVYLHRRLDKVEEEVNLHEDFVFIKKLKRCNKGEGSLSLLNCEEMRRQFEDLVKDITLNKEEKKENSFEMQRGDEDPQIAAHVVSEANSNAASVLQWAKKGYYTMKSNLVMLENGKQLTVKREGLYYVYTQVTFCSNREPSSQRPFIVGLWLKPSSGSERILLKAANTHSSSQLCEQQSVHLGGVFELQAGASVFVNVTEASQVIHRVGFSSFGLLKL

Substance: MR1, anti-murine CD40L antibody
- IC50, inhibition of CD86 expression on CD19 gated B cells: 0.1 nM
